The values below are quoted from earlier work in paper PMC2910649.

The data set has as its target VEGFR2 (Homo sapiens) (UniProt P35968).
UniProt P35968, sequence (P35968 20-1356): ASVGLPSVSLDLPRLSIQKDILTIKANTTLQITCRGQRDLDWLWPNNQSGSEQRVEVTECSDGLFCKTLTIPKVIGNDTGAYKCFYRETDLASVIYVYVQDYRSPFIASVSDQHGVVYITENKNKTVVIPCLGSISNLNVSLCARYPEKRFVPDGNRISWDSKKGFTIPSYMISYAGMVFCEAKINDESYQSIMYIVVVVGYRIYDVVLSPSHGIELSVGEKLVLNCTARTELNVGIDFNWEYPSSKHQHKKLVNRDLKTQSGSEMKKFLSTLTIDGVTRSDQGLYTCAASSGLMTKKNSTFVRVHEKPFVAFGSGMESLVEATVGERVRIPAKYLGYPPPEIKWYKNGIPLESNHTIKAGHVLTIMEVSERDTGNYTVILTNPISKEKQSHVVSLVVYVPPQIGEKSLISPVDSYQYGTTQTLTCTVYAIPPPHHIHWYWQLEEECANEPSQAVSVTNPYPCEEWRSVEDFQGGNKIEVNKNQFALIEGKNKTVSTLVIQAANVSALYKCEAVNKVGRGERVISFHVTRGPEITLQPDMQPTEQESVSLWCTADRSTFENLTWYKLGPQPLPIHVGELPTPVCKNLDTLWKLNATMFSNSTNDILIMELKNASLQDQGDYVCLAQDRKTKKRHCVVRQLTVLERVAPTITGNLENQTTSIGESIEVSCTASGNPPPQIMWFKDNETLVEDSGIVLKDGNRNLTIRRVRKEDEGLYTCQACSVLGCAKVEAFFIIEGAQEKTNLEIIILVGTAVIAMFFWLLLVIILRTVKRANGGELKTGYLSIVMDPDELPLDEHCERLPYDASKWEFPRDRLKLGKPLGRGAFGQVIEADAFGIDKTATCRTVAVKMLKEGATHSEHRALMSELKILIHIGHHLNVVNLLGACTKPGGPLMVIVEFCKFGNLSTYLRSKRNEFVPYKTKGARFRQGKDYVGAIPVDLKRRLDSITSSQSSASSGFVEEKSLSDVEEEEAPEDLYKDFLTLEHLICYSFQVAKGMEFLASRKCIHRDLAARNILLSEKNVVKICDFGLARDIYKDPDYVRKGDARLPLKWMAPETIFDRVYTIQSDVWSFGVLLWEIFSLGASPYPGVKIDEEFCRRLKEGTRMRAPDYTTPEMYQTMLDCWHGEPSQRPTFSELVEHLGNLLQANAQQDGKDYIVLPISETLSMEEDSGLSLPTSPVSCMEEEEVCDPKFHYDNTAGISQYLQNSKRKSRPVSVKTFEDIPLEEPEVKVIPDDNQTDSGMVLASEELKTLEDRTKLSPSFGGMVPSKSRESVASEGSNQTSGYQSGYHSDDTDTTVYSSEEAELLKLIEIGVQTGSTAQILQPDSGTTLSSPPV

Usually Kd stands for the constant that tells how readily two partners part at equilibrium. For the substance VEGF-A165 (from UniProt P15692), the Kd is 210 pM.
